Assay results taken from PMC8162121 (Nature cell biology, 2021).

B1: unlabeled NOP56, purified recombinant (natural protein, human, UniProt O00567 1-594, looked up)
chain: MVLLHVLFEHAVGYALLALKEVEEISLLQPQVEESVLNLGKFHSIVRLVAFCPFASSQVALENANAVSEGVVHEDLRLLLETHLPSKKKKVLLGVGDPKIGAAIQEELGYNCQTGGVIAEILRGVRLHFHNLVKGLTDLSACKAQLGLGHSYSRAKVKFNVNRVDNMIIQSISLLDQLDKDINTFSMRVREWYGYHFPELVKIINDNATYCRLAQFIGNRRELNEDKLEKLEELTMDGAKAKAILDASRSSMGMDISAIDLINIESFSSRVVSLSEYRQSLHTYLRSKMSQVAPSLSALIGEAVGARLIAHAGSLTNLAKYPASTVQILGAEKALFRALKTRGNTPKYGLIFHSTFIGRAAAKNKGRISRYLANKCSIASRIDCFSEVPTSVFGEKLREQVEERLSFYETGEIPRKNLDVMKEAMVQAEEAAAEITRKLEKQEKKRLKKEKKRLAALALASSENSSSTPEECEEMSEKPKKKKKQKPQEVPQENGMEDPSISFSKPKKKKSFSKEELMSSDLEETAGSTSIPKRKKSTPKEETVNDPEEAGHRSGSKKKRKFSKEEPVSSGPEEAVGKSSSKKKKKFHKASQED
B2: unlabeled FBL, purified recombinant (natural protein, human, UniProt P22087 1-321, looked up)
chain: MKPGFSPRGGGFGGRGGFGDRGGRGGRGGFGGGRGRGGGFRGRGRGGGGGGGGGGGGGRGGGGFHSGGNRGRGRGGKRGNQSGKNVMVEPHRHEGVFICRGKEDALVTKNLVPGESVYGEKRVSISEGDDKIEYRAWNPFRSKLAAAILGGVDQIHIKPGAKVLYLGAASGTTVSHVSDIVGPDGLVYAVEFSHRSGRDLINLAKKRTNIIPVIEDARHPHKYRMLIAMVDVIFADVAQPDQTRIVALNAHTFLRNGGHFVISIKANCIDSTASAEAVFASEVKKMQQENMKPQEQLTLEPYERDHAVVVGVYRPPPKVKN

Columns and labels:
[1] = biological target: Flag-tagged EZH2, purified recombinant (human, UniProt Q15910 1-746); test: AlphaScreen or HTRF
[2] = biological target: GST-tagged EZH2, purified recombinant (human, UniProt Q15910 1-746); test: AlphaScreen or HTRF
Chain of GST-tagged EZH2, purified recombinant (Q15910 whole entry): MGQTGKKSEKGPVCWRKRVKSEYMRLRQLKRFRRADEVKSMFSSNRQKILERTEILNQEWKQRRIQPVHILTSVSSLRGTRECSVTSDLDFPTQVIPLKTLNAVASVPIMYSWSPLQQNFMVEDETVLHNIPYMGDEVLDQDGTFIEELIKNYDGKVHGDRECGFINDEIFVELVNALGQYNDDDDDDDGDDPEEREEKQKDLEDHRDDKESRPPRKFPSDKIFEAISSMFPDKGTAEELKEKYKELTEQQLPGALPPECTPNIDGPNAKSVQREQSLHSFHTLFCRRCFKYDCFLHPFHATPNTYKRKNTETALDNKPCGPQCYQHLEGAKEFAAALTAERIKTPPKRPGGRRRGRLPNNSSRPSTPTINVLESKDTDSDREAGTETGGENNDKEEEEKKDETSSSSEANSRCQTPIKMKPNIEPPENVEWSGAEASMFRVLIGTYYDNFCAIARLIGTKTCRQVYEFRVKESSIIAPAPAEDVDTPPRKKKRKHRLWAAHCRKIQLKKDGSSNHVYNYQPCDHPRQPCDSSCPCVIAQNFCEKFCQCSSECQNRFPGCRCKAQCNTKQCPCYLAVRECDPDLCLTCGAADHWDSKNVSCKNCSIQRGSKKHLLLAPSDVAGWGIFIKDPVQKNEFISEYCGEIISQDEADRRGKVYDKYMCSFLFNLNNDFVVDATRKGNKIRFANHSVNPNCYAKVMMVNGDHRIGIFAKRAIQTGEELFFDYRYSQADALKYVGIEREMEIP

Chain of Flag-tagged EZH2, purified recombinant (Q15910 whole entry): as above

Row | Binder | Kd [1] | Kd [2]
1 | B1 | 43.6 nM | 
2 | B2 |  | 842 nM
